Results published in ChEMBL document CHEMBL6182944, “Substrate Specificity of the Organic Cation Transporters MATE1 and MATE2K and Functional Overlap with OCT1 and OCT2” (J Med Chem, 2025).

Columns and labels:
[1] = substrate: C[C@H]1N=C(N(C)C)N=C(N)N1; assay: (§1) Substrate activity at MATE2-K (unknown origin) expressed in HEK293 cells assessed as substrate concentration to achieve half of Vmax (maximum transport velocity) measured per mg of protein by HPLC-MS/MS analysis; format: cell-based, Homo sapiens
[2] = substrate: CC(CCc1ccc(O)cc1)NCCc1ccc(O)c(O)c1; assay: as §1; format: cell-based, Homo sapiens
[3] = substrate: CCN1CCCC1CNC(=O)c1cc(S(=O)(=O)CC)c(N)cc1OC; assay: as §1; format: cell-based, Homo sapiens
[4] = substrate: C[N+]1(CC2CC2)CC[C@]23c4c5ccc(O)c4O[C@H]2C(=O)CC[C@@]3(O)[C@H]1C5; assay: as §1; format: cell-based, Homo sapiens
[5] = substrate: CN(C)C(=O)Oc1cccc([N+](C)(C)C)c1; assay: as §1; format: cell-based, Homo sapiens
[6] = substrate: COCCn1c2c([n+](Cc3cnccn3)c1C)C(=O)c1ccccc1C2=O; assay: as §1; format: cell-based, Homo sapiens
[7] = substrate: c1c2c(cc3c1OCO3)-c1cc3ccc4c(c3c[n+]1CC2)OCO4; assay: as §1; format: cell-based, Homo sapiens
not read [8] = substrate: CN(C)CCc1c[nH]c2ccc(C[C@H]3COC(=O)N3)cc12; assay: not read
not read [9] = substrate: CNC[C@H](O)c1ccc(O)c(O)c1; assay: not read
not read [10] = substrate: NCCc1ccc(O)c(O)c1; assay: not read
not read [11] = substrate: Nc1nc(=O)n([C@@H]2CS[C@H](CO)O2)cc1F; assay: not read
not read [12] = substrate: CC(C)NC[C@@H](O)COc1ccc(CC(N)=O)cc1; assay: not read
not read [13] = substrate: Cc1ncc(CO)c(CO)c1O; assay: not read
not read [14] = substrate: Cc1ncc(C[n+]2csc(CCO)c2C)c(N)n1; assay: not read

B1: Multidrug and toxin extrusion protein 2 (Homo sapiens) (protein)
chain: MDSLQDTVALDHGGCCPALSRLVPRGFGTEMWTLFALSGPLFLFQVLTFMIYIVSTVFCGHLGKVELASVTLAVAFVNVCGVSVGVGLSSACDTLMSQSFGSPNKKHVGVILQRGALVLLLCCLPCWALFLNTQHILLLFRQDPDVSRLTQDYVMIFIPGLPVIFLYNLLAKYLQNQGWLKGQEEESPFQTPGLSILHPSHSHLSRASFHLFQKITWPQVLSGVVGNCVNGVANYALVSVLNLGVRGSAYANIISQFAQTVFLLLYIVLKKLHLETWAGWSSQCLQDWGPFFSLAVPSMLMICVEWWAYEIGSFLMGLLSVVDLSAQAVIYEVATVTYMIPLGLSIGVCVRVGMALGAADTVQAKRSAVSGVLSIVGISLVLGTLISILKNQLGHIFTNDEDVIALVSQVLPVYSVFHVFEAICCVYGGVLRGTGKQAFGAAVNAITYYIIGLPLGILLTFVVRMRIMGLWLGMLACVFLATAAFVAYTARLDWKLAAEEAKKHSGRQQQQRAESTATRPGPEKAVLSSVATGSSPGITLTTYSRSECHVDFFRTPEEAHALSAPTSRLSVKQLVIRRGAALGAASATLMVGLTVRILATRH
Work on B1 yielded a Km [1] of 81.6 µM, a Vmax [1] of 0.00281 µmol/min and a Km [2] of 86.4 µM. For the same protein, the Vmax [2] was 0.000493 µmol/min, the Km [3] was 39.9 µM and the Vmax [3] was 0.00071 µmol/min. It also gave a Km [4] of 86.8 µM, a Vmax [4] of 4.16e-05 µmol/min and a Km [5] of 385 µM. The Vmax [5] was 0.00314 µmol/min, the Km [6] was 8.54 µM and the Vmax [6] was 7.85e-05 µmol/min. It also gave a Km [7] of 1.88 µM, a Vmax [7] of 0.000246 µmol/min and a Km (not read [8]) of 94.5 µM. For the same protein, the Vmax (not read [8]) was 0.00166 µmol/min, the Km (not read [9]) was 1510 µM and the Vmax (not read [9]) was 0.00297 µmol/min. The Km (not read [10]) was 961 µM, the Vmax (not read [10]) was 0.00122 µmol/min and the Km (not read [11]) was 873 µM. It also gave a Vmax (not read [11]) of 0.00263 µmol/min, a Km (not read [12]) of 181 µM and a Vmax (not read [12]) of 0.00296 µmol/min. For the same protein, the Km (not read [13]) was 495 µM, the Vmax (not read [13]) was 0.000593 µmol/min and the Vmax (not read [14]) was 0.000109 µmol/min.
